This note sets out measurements from US20250277199, “NOVEL CRISPR-CAS NUCLEASES FROM METAGENOMES” (Brain Biotech AG, published 2025).

For this data set, the target named is T1, BMC07 (uncultured bacterium (metagenome)).
T1 chain: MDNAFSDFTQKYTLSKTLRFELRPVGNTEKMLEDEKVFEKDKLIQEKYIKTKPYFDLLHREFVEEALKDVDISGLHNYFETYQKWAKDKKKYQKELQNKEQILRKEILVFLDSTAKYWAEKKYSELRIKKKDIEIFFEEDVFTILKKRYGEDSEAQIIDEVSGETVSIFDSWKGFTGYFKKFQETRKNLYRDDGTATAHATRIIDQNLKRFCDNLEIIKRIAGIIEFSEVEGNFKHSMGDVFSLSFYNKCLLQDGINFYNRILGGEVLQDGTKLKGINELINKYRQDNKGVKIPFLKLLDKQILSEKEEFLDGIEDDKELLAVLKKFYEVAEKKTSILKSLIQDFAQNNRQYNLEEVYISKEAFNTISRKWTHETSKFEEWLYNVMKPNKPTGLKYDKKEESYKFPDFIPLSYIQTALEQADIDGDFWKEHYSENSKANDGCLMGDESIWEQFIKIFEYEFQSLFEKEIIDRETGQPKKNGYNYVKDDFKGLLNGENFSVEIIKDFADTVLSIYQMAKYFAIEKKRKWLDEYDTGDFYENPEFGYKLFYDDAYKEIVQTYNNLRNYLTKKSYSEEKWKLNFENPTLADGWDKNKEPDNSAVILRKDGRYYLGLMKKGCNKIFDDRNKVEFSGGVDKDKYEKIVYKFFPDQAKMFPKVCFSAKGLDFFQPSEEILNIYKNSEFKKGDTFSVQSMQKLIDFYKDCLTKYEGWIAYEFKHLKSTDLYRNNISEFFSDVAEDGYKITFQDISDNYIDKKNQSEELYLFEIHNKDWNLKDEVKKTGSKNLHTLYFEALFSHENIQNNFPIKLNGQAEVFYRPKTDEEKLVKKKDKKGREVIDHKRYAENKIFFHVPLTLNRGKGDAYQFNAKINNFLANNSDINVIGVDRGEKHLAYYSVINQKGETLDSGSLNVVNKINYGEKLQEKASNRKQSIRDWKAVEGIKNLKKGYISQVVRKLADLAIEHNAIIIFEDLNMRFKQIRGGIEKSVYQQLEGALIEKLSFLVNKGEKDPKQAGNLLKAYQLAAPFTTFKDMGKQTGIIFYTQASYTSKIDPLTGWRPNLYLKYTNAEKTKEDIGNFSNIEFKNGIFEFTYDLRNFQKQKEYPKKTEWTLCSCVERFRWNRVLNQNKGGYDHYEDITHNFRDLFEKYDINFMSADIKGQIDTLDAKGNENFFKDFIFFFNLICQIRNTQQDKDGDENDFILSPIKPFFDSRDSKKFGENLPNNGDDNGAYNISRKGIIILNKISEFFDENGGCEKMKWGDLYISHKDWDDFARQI
Kind of data set: cell_activity; PAM not stated; E. coli depletion, 30 C. The method, boiled down:
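E. coli carrying arabinose-induced (0.2%) BMC nuclease, grown at 30° C., made electrocompetent and electroporated with 50-100 ng plasmid carrying gRNA against malQ. Transformants plated on selective M9-glucose agar with kanamycin/ampicillin (± nourseothricin), and growth scored after 48 h at 30° C.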

Some results are limits rather than exact numbers.

B1: malQ gRNA (BMC stem-loop + 24 nt spacer) ; malQ protospacer (ssRNA ; dsDNA)
RNA: GAUUUCUACUAUUGUAGAUGUGGCGGUACGUUGAUGCAUCGCG
DNA 1: GTGGCGGTACGTTGATGCATCGCG
DNA 2: CGCGATGCATCAACGTACCGCCAC
Take B1: the activity is greater than 99.9 % colony reduction.
